# Source: the supplement of paper PMC10126150
# ± gives the standard deviation of the averaged measurements.
# Tested on: ATP
# Assay: switch fluorescence ratio, 500 uM ATP over buffer (Cy3 cluster intensity, sum of 5 cycles each) (fold (ratio)); higher = stronger signal-on switching upon ATP binding; sequences stand for … in TCGTCGGCAGCGTCAGATGTGTATAAGAGACAGTTTTTTTTTTTTTTTTTTTTTTTTT…TC
# Conditions: aptamer strand: ATP DNA aptamer (quencher-CACCTGGGGGAGTATTGCGGAGGAAGG + anchor), 100 nM annealed; ATP concentration: 500 uM
# In short: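 For every switch-domain sequence, the fluorescence ratio is the mean of per-cluster values, each being summed target-cycle Cy3 intensity over summed buffer-cycle Cy3 intensity. Clusters outside 100-1000 RFU were excluded. On a modified Illumina MiSeq flow-cell, the Cy3-labelled switching-strand clusters were annealed to 100 nM quencher-labelled ATP aptamer, imaged in selection buffer and then after 15 min with 500 uM ATP at 22 °C. Five such cycles were run, with NaOH stripping and re-annealing between them.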
# 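Also: ATP exposure 15 min at 22 °C before imaging.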
row,Sequence,switch fluorescence ratio
1,AATACGTAGT,1.04 ± 0.078
2,GGTGTATTGG,0.991 ± 0.029
3,TTTAATACGC,1.38 ± 0.26
4,CCGTACGGGG,1.029 ± 0.0055
5,AAGTATTAGA,0.964 ± 0.011
6,TCATGGTTTT,0.977 ± 0.016
7,AGGGTATATC,1.05 ± 0.03
8,CAATGGCCTC,1 ± 0.047
9,ACGTGACACC,1.35 ± 0.063
10,TTGGAATCGA,1.06 ± 0.035
11,ATGTTAGTAC,1.03 ± 0.058
12,ATGTTATTTA,1.01 ± 0.025
13,GTGCTACGTG,0.966 ± 0.059
14,GCCAAAGCGG,0.997 ± 0.014
15,GTTCTGGGCT,0.973 ± 0.016
16,GGGAAGAGTA,1 ± 0.031
17,ACAAGATGGG,1.09 ± 0.082
18,ACTGGGAGGC,1 ± 0.096
19,TTTTGCTTTC,1.14 ± 0.1
20,GGTTGGGATG,0.951 ± 0.022
21,CATGACTAGA,0.981 ± 0.014
22,GAGAGAATGG,0.994 ± 0.0043
23,GGGCAAAATG,0.981 ± 0.036
24,TTTTGGTTG,0.947 ± 0.045
25,ATTAACCATT,1.01 ± 0.014

row,Sequence,switch fluorescence ratio
1,CAGGTAGTGC,1.04 ± 0.096
2,GGATTGGGAC,1.024 ± 0.0016
3,GGCGCTCAGT,1.02 ± 0.02
4,TGGGGGAGAG,1.01 ± 0.03
5,TTAAGGTGTG,1.02 ± 0.041
6,ATGATTATGG,1.02 ± 0.014
7,CGGAGTGCTT,1.03 ± 0.021
8,AGGAAGTCTG,1.03 ± 0.035
9,CCCTTATGGT,0.9932 ± 0.0086
10,ATATTTTTGG,0.993 ± 0.011
11,CATAATTGGG,0.995 ± 0.028
12,GACTGTAAGC,1.057 ± 0.0074
13,AGGATCGGTA,0.987 ± 0.022
14,ACATGTTAGT,1.006 ± 0.0028
15,ATGAGGGCGG,0.98 ± 0.021
16,GGTTTATGTT,1 ± 0.019
17,TGGATAGCGC,1.01 ± 0.011
18,TCACTAGATC,0.998 ± 0.021
19,TTAATTTAAA,0.9752 ± 0.0031
20,GTTAATAGTG,0.988 ± 0.021
21,ACTGTTTTCC,1.066 ± 0.0042
22,CGGATCTTGT,0.961 ± 0.021
23,CTCAGAAACA,1.02 ± 0.013
24,GGTGCTTAAT,1 ± 0.037
25,CGCGGGTTCA,1.03 ± 0.037

row,Sequence,switch fluorescence ratio
1,AAGGTAGAAA,1.03 ± 0.016
2,CGTTACTGGT,0.973 ± 0.016
3,GGATGGTTTT,1.02 ± 0.018
4,CGACTCGACG,1.013 ± 0.006
5,TTTTGATAAC,0.97 ± 0.036
6,GAGCCAGGGA,1.001 ± 0.0029
7,TTTTAAAGAG,0.97 ± 0.024
8,CATTTCAGAG,1.003 ± 0.0062
9,GAGTCACAGT,1 ± 0.057
10,AAAATACGTT,1.23 ± 0.16
11,TTCGTAAGTT,0.99485 ± 0.00084
12,ACTAGGTGTG,1.04 ± 0.013
13,GAGTACTCGT,1.03 ± 0.034
14,AGAATAAAGG,0.993 ± 0.05
15,GTTATCTCTT,0.996 ± 0.033
16,GAGAGGTG,1.08 ± 0.021
17,AGAGCGAGGA,0.986 ± 0.027
18,AGAGGGGAGG,0.988 ± 0.0054
19,TCTCGGAAAA,0.996 ± 0.021
20,AAAAACAGGT,1.02 ± 0.013
21,ACGTAGCATG,2.46 ± 0.45
22,CTGTATGGTA,1.04 ± 0.045
23,TCCGGCGGCC,1.09 ± 0.024
24,GCAGAGGGCA,1.01 ± 0.049
25,GCTGGGTTGC,1.01 ± 0.024

row,Sequence,switch fluorescence ratio
1,GGAGGCAGGG,0.9965 ± 0.0096
2,GATTAAATTT,1.01 ± 0.033
3,TGGGGTTAGA,0.978 ± 0.029
4,TCGGCTTAGC,0.981 ± 0.012
5,CCGTCGCTTA,2.36 ± 0.37
6,TTTGTTAACG,0.99 ± 0.013
7,AAAGGGCATC,1.01 ± 0.058
8,CGTTAATTTT,0.983 ± 0.026
9,TTTATGTCGG,1.004 ± 0.0091
10,ACCGGGCGGC,1.05 ± 0.033
11,AGAAACGGAG,1.02 ± 0.016
12,CTCCCTGGGT,1.401 ± 0.013
13,AGGACCATGT,1.01 ± 0.02
14,CTAGCGAGGG,1.01 ± 0.014
15,GAGGGGGATT,0.991 ± 0.028
16,AGGCCTTCGA,1.003 ± 0.0083
17,TTTAACAGTA,1.04 ± 0.044
18,GCCATGTGAA,1.004 ± 0.0084
19,CAGTTAGTGT,1.001 ± 0.00021
20,TTACCCCCGT,1.56 ± 0.079
21,CTCATACGGG,1.05 ± 0.036
22,CGTTTTGCAT,1.09 ± 0.11
23,GTAAGATGTG,1.03 ± 0.028
24,AATTACGATT,1.04 ± 0.034
25,ATTTGCGGCT,0.958 ± 0.062

row,Sequence,switch fluorescence ratio
1,GAGGGGCTTC,1 ± 0.016
2,ACTTCTCTTA,1.01 ± 0.013
3,ATTTCAAATA,1.01 ± 0.043
4,TGGGTTGGCC,0.99 ± 0.043
5,TTTTTTTTCT,1.02 ± 0.067
6,TTCTGATTAT,1 ± 0.035
7,GGATGCAAAG,1.01 ± 0.013
8,ATGAATAAAT,1.012 ± 0.0058
9,TCAGTGGGTT,0.9968 ± 0.0089
10,ATTTCCGCAG,3.82 ± 0.56
11,GATTAAATTA,1.01 ± 0.021
12,ATATGTGACT,0.977 ± 0.014
13,TTGTGTGTAT,0.992 ± 0.017
14,TTTAGACCAG,1.01 ± 0.059
15,TCATGGAGAT,0.965 ± 0.033
16,TTTTGAACGT,1.02 ± 0.043
17,TTTCAGAAAG,0.986 ± 0.011
18,TTAAGATTTA,0.9933 ± 0.0077
19,TTTTGCAGG,0.991 ± 0.05
20,TGCTTATGGG,0.965 ± 0.016
21,CTCATGTTGG,0.983 ± 0.015
22,CGCGGTTGAC,1.12 ± 0.03
23,CTGAGCTGTG,0.968 ± 0.035
24,GGGGAGGTTC,1 ± 0.031
25,TCAGACATCG,1.01 ± 0.035

row,Sequence,switch fluorescence ratio
1,CAGCGAGGGG,1.21 ± 0.32
2,CGAGTATGGA,0.9923 ± 0.0042
3,ATATATATCG,1.01 ± 0.0093
4,TGTCAGTTTC,0.987 ± 0.018
5,TTTTCCTGAC,1.64 ± 0.25
6,CATATCTGAC,1.16 ± 0.056
7,CCTTTAATGT,1.01 ± 0.022
8,ATATAGTTCG,0.967 ± 0.047
9,GTTTTCAAAG,0.973 ± 0.037
10,CTGATTTTAT,0.9856 ± 0.0013
11,GATTTAGACT,1.04 ± 0.071
12,GGCATAATTT,1.016 ± 0.008
13,CGAGGGTCGG,1.01 ± 0.042
14,GTTGTTTGTT,0.978 ± 0.015
15,GCGGAAAGAA,0.962 ± 0.02
16,CTGGGTGGGG,1 ± 0.013
17,GGGGATACAG,0.995 ± 0.012
18,GATATAGGGT,0.983 ± 0.018
19,AAAGGGTTTG,1.01 ± 0.033
20,AAAAAGGATT,1 ± 0.02
21,GTTGTACTGG,0.944 ± 0.03
22,AAGTTGTACG,0.9989 ± 0.0032
23,AGAGTCAAGT,0.969 ± 0.017
24,TATGCCAGCG,1.01 ± 0.025
25,TGGCTCGGGG,1.03 ± 0.051

row,Sequence,switch fluorescence ratio
1,GCCTTGCCTT,1.03 ± 0.013
2,GGGGAGTTAG,1.01 ± 0.013
3,CTTTATTGGG,0.972 ± 0.02
4,TTGCGTGTGA,1.01 ± 0.028
5,TAAGCGATCT,1.0192 ± 0.00013
6,TTAAATGTTT,0.994 ± 0.015
7,TCATATTAAG,0.9911 ± 0.0028
8,ATGTCGGGCA,0.986 ± 0.064
9,CCACATCCAT,1.044 ± 0.01
10,TGGGTTGGTG,1.03 ± 0.032
11,GAGTGAGTAC,1 ± 0.055
12,TCACACGGCG,1.13 ± 0.18
13,AGCTTTTTGA,0.966 ± 0.025
14,AGGAATGGTC,1.02 ± 0.051
15,CAGCGAGTCC,1.067 ± 0.0012
16,CCATGGCCAC,1.0321 ± 0.00059
17,CCACGCCAGA,1.28 ± 0.052
18,AAGGCATCAG,0.9915 ± 0.0045
19,ATTGATTCTT,1.01 ± 0.051
20,ACCTCTTATA,1.05 ± 0.014
21,CACATTTTTG,0.995 ± 0.023
22,AAATCTCTTT,1 ± 0.014
23,TAACGAAGGA,1.03 ± 0.051
24,GAGCAAGAGT,1.8 ± 0.046
25,GGCGCGCGGT,0.98 ± 0.0095

row,Sequence,switch fluorescence ratio
1,ATTCGGACGG,1.026 ± 0.0055
2,CTCGGTTTTT,0.989 ± 0.035
3,ATAGGGACAC,1.07 ± 0.033
4,GAACGGGGGG,0.9624 ± 0.0053
5,ATTGAAGGCG,1 ± 0.038
6,CAATAGACGG,1.04 ± 0.046
7,GTTGGCATTT,1.05 ± 0.092
8,ATAGGTCCGG,0.9957 ± 0.0041
9,GAGCATATCA,1.006 ± 0.0028
10,GATTAGGTTG,0.968 ± 0.072
11,CTAGAATAGG,0.985 ± 0.028
12,TACAGTGAAA,1.05 ± 0.057
13,AATGGCAATT,0.995 ± 0.033
14,TGAAATCCGA,1 ± 0.027
15,ATGGGGCTTT,1.01 ± 0.013
16,TCGAGGCTGT,1.18 ± 0.05
17,ACTGTTTTCG,1.02 ± 0.028
18,GTGTTGGTAT,1.01 ± 0.034
19,AGATATTATT,0.9771 ± 0.0015
20,TCAGTTGTCA,0.981 ± 0.017
21,GGATGTAGAA,1.026 ± 0.0011
22,AACGGATGAG,0.987 ± 0.038
23,AAGGGGTGGG,1.02 ± 0.032
24,AGTGGGAGGG,1 ± 0.02
25,GAAGTGTCGG,1.005 ± 0.0057
